Measurements published in patent US20180291110A1 (Hoffmann-La Roche, published 2018).
Where a chain is given by its changes, count along the chain named. One block for each binder: values may come before it.

Molecular target: T1, human transferrin receptor (recombinant, for surface plasmon resonance) (human, UniProt P02786 89-760)
T1 construct: also called huTfR; human transferrin receptor-biotinylated
Test: SPR 25C

T1 sequence (P02786 89-760 limits assumed): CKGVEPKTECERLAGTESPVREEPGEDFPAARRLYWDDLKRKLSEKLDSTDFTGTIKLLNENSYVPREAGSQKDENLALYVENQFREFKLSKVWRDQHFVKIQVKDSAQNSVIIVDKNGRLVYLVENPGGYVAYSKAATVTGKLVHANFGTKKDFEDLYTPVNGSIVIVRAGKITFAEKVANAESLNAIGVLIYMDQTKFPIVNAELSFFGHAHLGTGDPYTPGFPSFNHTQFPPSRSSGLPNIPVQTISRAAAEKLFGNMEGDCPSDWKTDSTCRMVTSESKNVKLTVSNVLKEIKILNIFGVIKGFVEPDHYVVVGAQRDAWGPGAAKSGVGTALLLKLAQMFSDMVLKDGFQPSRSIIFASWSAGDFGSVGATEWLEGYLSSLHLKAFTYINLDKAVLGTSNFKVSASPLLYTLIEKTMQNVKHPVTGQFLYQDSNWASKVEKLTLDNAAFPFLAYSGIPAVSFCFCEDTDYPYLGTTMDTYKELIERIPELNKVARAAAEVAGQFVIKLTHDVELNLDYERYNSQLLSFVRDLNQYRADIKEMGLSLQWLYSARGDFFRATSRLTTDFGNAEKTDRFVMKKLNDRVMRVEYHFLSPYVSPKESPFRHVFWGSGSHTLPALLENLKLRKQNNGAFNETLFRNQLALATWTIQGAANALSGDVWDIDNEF

B1: 2/99 VH0(rb)/VL9-NYA (antibody, V domains shown)
VH: QSMEESGGRLVTPGTPLTLTCTVSGFSLSSYAMSWVRQAPGKGLEWIGYIWSGGSTDYASWAKGRFTISKTSTTVDLKITSPTTEDTATYFCARRYGTSYPDYGDANGFDPWGPGTLVTVSS
VL: AIQLTQSPSSLSASVGDRVTITCRASQSISSYLAWYQQKPGKAPKLLIYRASTLASGVPSRFSGSGSGTDFTLTISSLQPEDFATYYCQQNYASSNVDNTFGGGTKVEI
koff: 0.00141 s⁻¹

B2: 2/99 VH15/VL8 (antibody, V domains shown)
VH: QQLQESGPGLVKPSETLSLTCTVSGFSLSSYAMSWVRQPPGKGLEWIGYIWSGGSTDYNPSLKSRVTISVDTSKNQVSLKLSSVTAADTAVYYCARRYGTSYPDYGDANGFDPWGQGTLVTVSS
VL: AYQLTQSPSSLSASVGDRVTITCRASQSISSYLSWYQQKPGKAPKLLIYRASTLASGVPSRFSGSGSGTDFTLTISSLQPEDFATYYCQQSYSSSNVDNTFGGGTKVEIK
koff: 0.00209 s⁻¹

B3: 2/99 VH5/VL12 (antibody, V domains shown)
VH: QSMEETGGGLIQPGGSLRLSCAASGFSLSSYAMSWVRQAPGKGLEWVGYIWSGGSTDYADSVKGRFTISRDNSKNTLYLQMNSLRAEDTAVYYCARRYGTSYPDYGDANGFDPWGPGTLVTVSS
VL: B2 VL with A1D, Y2I, L4M, S34A, G66R, S91H
koff: 0.001 s⁻¹

B4: 2/99 VH21/VL10 (antibody, V domains shown)
VH: B2 VH with Q2S, L3M, E15Q, V36I, P39H, N59A, P60S, S61W, L62A
VL: B2 VL with A1D, Y2I, L4M, G66R
koff: 0.00211 s⁻¹

B8: 2/99 VH8/VL10 (antibody, V domains shown)
VH: QQLVETGGGLIQPGGSLRLSCAASGFSLSSYAMSWVRQAPGKGLEWIGYIWSGGSTDYASWAKGRFTISKTSTTLYLQMNSLRAEDTAVYYCARRYGTSYPDYGDANGFDPWGQGTLVTVSS
VL: B2 VL with A1D, Y2I, L4M, G66R
koff: 0.00173 s⁻¹

B10: 2/99 VH2/VL12 (antibody, V domains shown)
VH: EVQLVETGGGLIQPGGSLRLSCAASGFSLSSYAMSWVRQAPGKGLEWVGYIWSGGSTDYADSVKGRFTISRDNSKNTLYLQMNSLRAEDTAVYYCARRYGTSYPDYGDANGFDPWGQGTLVTVSS
VL: B2 VL with A1D, Y2I, L4M, S34A, G66R, S91H
koff: 0.00814 s⁻¹

B12: 2/99 VH20/VL10 (antibody, V domains shown)
VH: B2 VH with Q2S, L3M, E15Q, V36I, P39H, N59A
VL: B2 VL with A1D, Y2I, L4M, G66R
koff: 0.00705 s⁻¹

B13: 2/99 VH2/VL10 (antibody, V domains shown)
VH: B10 VH
VL: B2 VL with A1D, Y2I, L4M, G66R
koff: 0.00649 s⁻¹

B14: 2/99 VH20/VL8 (antibody, V domains shown)
VH: B2 VH with Q2S, L3M, E15Q, V36I, P39H, N59A
VL: B2 VL
koff: 0.00658 s⁻¹

B16: 2/99 VH1/VL12 (antibody, V domains shown)
VH: B3 VH with Q1V, S2Q, M3L, E4V, P116Q
VL: B2 VL with A1D, Y2I, L4M, S34A, G66R, S91H
koff: 0.00705 s⁻¹

B18: 2/99 VH23-DANG/VL8 (antibody, V domains shown)
VH: QSMQESGPGLVKPSQTLSLTCTVSGFSLSSYAMSWIRQHPGKGLEWIGYIWSGGSTDYASWAKSRVTISKTSTTVSLKLSSVTAADTAVYYCARRYGTSYPDYGDANGFDPWGQGTLVTVSS
VL: B2 VL
koff: 0.000941 s⁻¹

B20: 2/99 VH6/VL10 (antibody, V domains shown)
VH: B3 VH with S2Q, M3L, E4V, V47I, P116Q
VL: B2 VL with A1D, Y2I, L4M, G66R
koff: 0.00455 s⁻¹

B23: 2/99 VH18/VL8 (antibody, V domains shown)
VH: QVQLQESGPGLVKPSQTLSLTCTVSGFSLSSYAMSWIRQHPGKGLEWIGYIWSGGSTDYAPSLKSRVTISVDTSKNQFSLKLSSVTAADTAVYYCARRYGTSYPDYGDANGFDPWGQGTLVTVSS
VL: B2 VL
koff: 0.00677 s⁻¹

B24: 2/99 VH8/VL12 (antibody, V domains shown)
VH: B8 VH
VL: B2 VL with A1D, Y2I, L4M, S34A, G66R, S91H
koff: 0.00672 s⁻¹

B25: 2/99 VH23-DANG/VL10 (antibody, V domains shown)
VH: B18 VH
VL: B2 VL with A1D, Y2I, L4M, G66R
koff: 0.0012 s⁻¹

B26: 2/99 VH7/VL12 (antibody, V domains shown)
VH: B3 VH with S2Q, M3L, E4V, V47I, D60S, S61W, V62A, P116Q
VL: B2 VL with A1D, Y2I, L4M, S34A, G66R, S91H
koff: 0.00775 s⁻¹

B27: 2/99 VH9/VL10 (antibody, V domains shown)
VH: B3 VH with S2Q, M3L, E4L, T6S, I11V, S27T, L28F, R96K, P116Q
VL: B2 VL with A1D, Y2I, L4M, G66R
koff: 0.00719 s⁻¹

B28: 2/99 VH17/VL8 (antibody, V domains shown)
VH: B2 VH with V70K, Q116P
VL: B2 VL
koff: 0.00111 s⁻¹

B29: 2/99 VH12/VL10 (antibody, V domains shown)
VH: B23 VH with Q16E, H40P, A60N
VL: B2 VL with A1D, Y2I, L4M, G66R
koff: 0.00779 s⁻¹

B32: 2/99 VH7/VL10 (antibody, V domains shown)
VH: B3 VH with S2Q, M3L, E4V, V47I, D60S, S61W, V62A, P116Q
VL: B2 VL with A1D, Y2I, L4M, G66R
koff: 0.00264 s⁻¹

B33: 2/99 VH1/VL10 (antibody, V domains shown)
VH: B3 VH with Q1V, S2Q, M3L, E4V, P116Q
VL: B2 VL with A1D, Y2I, L4M, G66R
koff: 0.00677 s⁻¹

B34: 2/99 VH21/VL8 (antibody, V domains shown)
VH: B2 VH with Q2S, L3M, E15Q, V36I, P39H, N59A, P60S, S61W, L62A
VL: B2 VL
koff: 0.00174 s⁻¹

Continued, values first:

koff: 0.00165 s⁻¹
B5: 2/99 VH22/VL8 (antibody, V domains shown)
VH: B2 VH with Q2S, L3M, E15Q, P39H, N59A, P60S, S61W, L62A
VL: B2 VL

koff: 0.00399 s⁻¹
B6: 2/99 VH15/VL10 (antibody, V domains shown)
VH: B2 VH
VL: B2 VL with A1D, Y2I, L4M, G66R

koff: 0.00424 s⁻¹
B7: 2/99 VH16/VL10 (antibody, V domains shown)
VH: B2 VH with Q116P
VL: B2 VL with A1D, Y2I, L4M, G66R

koff: 0.00589 s⁻¹
B9: 2/99 VH13/VL10 (antibody, V domains shown)
VH: B23 VH with Q16E, H40P, A60N, F78V
VL: B2 VL with A1D, Y2I, L4M, G66R

koff: 0.00653 s⁻¹
B11: 2/99 VH5/VL10 (antibody, V domains shown)
VH: B3 VH
VL: B2 VL with A1D, Y2I, L4M, G66R

koff: 0.00671 s⁻¹
B15: 2/99 VH19/VL8 (antibody, V domains shown)
VH: B2 VH with Q2S, L3M, E15Q, V36I, P39H, N59A, V77F
VL: B2 VL

koff: 0.00716 s⁻¹
B17: 2/99 VH11/VL10 (antibody, V domains shown)
VH: B3 VH with S2Q, M3L, E4L, T6S, I11V, P116Q
VL: B2 VL with A1D, Y2I, L4M, G66R

koff: 0.00746 s⁻¹
B19: 2/99 VH18/VL10 (antibody, V domains shown)
VH: B23 VH
VL: B2 VL with A1D, Y2I, L4M, G66R

koff: 0.00209 s⁻¹
B21: 2/99 VH22/VL10 (antibody, V domains shown)
VH: B2 VH with Q2S, L3M, E15Q, P39H, N59A, P60S, S61W, L62A
VL: B2 VL with A1D, Y2I, L4M, G66R

koff: 0.00778 s⁻¹
B22: 2/99 VH6/VL12 (antibody, V domains shown)
VH: B3 VH with S2Q, M3L, E4V, V47I, P116Q
VL: B2 VL with A1D, Y2I, L4M, S34A, G66R, S91H

koff: 0.00188 s⁻¹
B30: 2/99 VH17/VL10 (antibody, V domains shown)
VH: B2 VH with V70K, Q116P
VL: B2 VL with A1D, Y2I, L4M, G66R

koff: 0.00197 s⁻¹
B31: 2/99 VH16/VL8 (antibody, V domains shown)
VH: B2 VH with Q116P
VL: B2 VL

koff: 0.001 s⁻¹
B35: 2/99 VH19/VL10 (antibody, V domains shown)
VH: B2 VH with Q2S, L3M, E15Q, V36I, P39H, N59A, V77F
VL: B2 VL with A1D, Y2I, L4M, G66R
